In patent US20130052198A1, “ANTI-INFLAMMATORY FACTORS” (THE GENERAL HOSPITAL CORPORATION, priority 2010, published 2013):
“Also recorded” adds a separate entry of the source.

Legend:
[1] = system: BALB/cJ mice challenged with a lethal dose of LPS; experiment: Lethal LPS model, survival; assay type: in vivo; conditions: 350 μg LPS i.p. with 4 μg protein; monitored seven days
Protocol: (§1) FIG. 8: In vivo hit screen and survival study. (a) Schematic of the in vivo LPS assay. Proteins were administered intraperitoneal (IP) at the concentration that elicited the strongest effect in vitro, followed by IP administration of LPS in conjunction with a second dose of the proteins 16 hours later. Two days after the combined LPS and second protein dose, the mice were sacrificed and assessed for changes in serum cytokines and tissue histology. (b) Serum IL-10 levels of BALB/cJ mice subjected to the in vivo LPS assay. * p<0.001 compared to saline. (c) Serum TNF-α levels of BALB/cJ mice subjected to the in vivo LPS assay. * p<0.001 compared to saline, ** p<0.05 compared to BMSC-CM. (d) Representative micrographs of lung tissue from mice subjected to the in vivo LPS assay stained with hematoxylin and eosin. (e) Survival of mice subjected to a lethal dose of LPS i.p. (350 μg) concurrently with i.p. saline vehicle (bold dark blue line), 5 μg Anti-TNF-α antibody (thin dark blue line), 4 μg PENK (bold light blue line) or 4 μg MFAP5 (thin light blue line). Scale bar=200 μm.
All procedures were performed in accordance with the animal rights policies of the Massachusetts General Hospital Subcommittee on Research Animal Care. […] Mice were monitored for survival for seven days (168 hours).

[2] = system: human peripheral blood mononuclear cells (PBMCs); experiment: PBMC potency assay (IL-10 assay): IL-10 secretion by LPS-stimulated PBMCs, ELISA; assay type: cell-based; conditions: recombinant molecules diluted in RPMI 1640
Description: FIG. 1: MSC conditioned medium causes peripheral blood mononuclear cells to secrete IL-10 in response to LPS, providing the basis for differential gene expression analysis to identify genes responsible for the increased activity. (a) Generalized schematic of EPS methodology. Protein products are derived from various cell types in the form of conditioned media and screened for activity in an in vitro potency assay. […] Recombinant protein products of the enriched gene list are then screened in a potency assay and the candidates with the highest activity are assessed for activity in vivo. (b) In vitro potency assay. This assay entails incubating primary human peripheral blood mononuclear cells (PBMCs) in the presence of protein products (e.g., conditioned medium from a cell) for 16 hours, followed by stimulation of the PBMCs with LPS for five hours, and measurement of IL-10 secretion into the supernatant via ELISA. (c) Time course of IL-10 expression from PBMCs when incubated with either bone marrow stromal cell conditioned medium (BMSC-CM) or unconditioned medium (DMEM) in the potency assay. (d) Comparison of potency assay activity of conditioned medium from normal human dermal fibroblasts (FB-CM), BMSCs (BMSC-CM) and BMSCs preincubated with LPS prior to conditioning (BMSCLPS-CM). * p<0.001 compared to FB-CM, ** p<0.001 compared to BMSC-CM. (e) Schematic of the differential gene expression comparison strategy to select for genes uniquely expressed at high levels in LPS stimulated MSCs (MSCLPS) compared to MSCs and fibroblasts (FBs). Analysis was then conducted on the genes identified to select for genes that were most likely to be responsible for secreted proteins. MSCLPS, LPS stimulated MSC; FB, fibroblast. […]
Leukocytes were prepared from fresh whole human blood, collected and spun in the presence of Ficoll for 30 minutes at 1500×g. […] The resultant supernatants were collected and analyzed via ELISA for human interleukin-10 (IL-10). […]

[3] = system: human leukocytes in culture; experiment: Cytokine production (IL-10 or IFN-γ) in human leukocytes in culture; assay type: cell-based; conditions: concentrations within five orders of magnitude of 10 μg/mL
Protocol: (§2) Leukocytes were prepared from fresh whole human blood, collected and spun in the presence of Ficoll for 30 minutes at 1500×g. The mononuclear cell layer was transferred to a new tube where it was washed once with RPMI 1640. The mononuclear cells were plated at a density of 1×10^5 per well of a 96-well plate in 50 μL of RPMI 1640 per well. MSC-CM was then immediately added to each well and allowed to incubate in the presence of the mononuclear cells for 16 hours. After incubation, 50 μL of RPMI 1640 containing 10 μg/mL of LPS was added to each well and allowed to incubate for an additional 5 hours. The resultant supernatants were collected and analyzed via ELISA for human interleukin-10 (IL-10). This procedure of incubating leukocytes with MSC-CM to determine IL-10 stimulating activity will be henceforth referred to as the “IL-10 assay”.
(§3) Preparations and use of MSC-CM, Fb-CM, LPS-stimulated MSC-CM, leukocytes were as described in Examples 1-3 and the Figures. These conditioned media preparations were added to leukocyte cultures for 16 hours, after which the culture was stimulated with LPS at 10 μg/ml. The medium from this culture was collected 24 hours after LPS stimulation of leukocytes and analyzed using an IFN-γ ELISA.

[4] = system: BALB/cJ mice challenged with a sub-lethal dose of LPS; experiment: In vivo LPS assay, sub-lethal LPS model: serum cytokines and lung histology
Protocol: as §1
All procedures were performed in accordance with the animal rights policies of the Massachusetts General Hospital Subcommittee on Research Animal Care. For the sub-lethal LPS model, eight week old female BALB/cJ mice (n≧3) (Jackson Laboratories, Bar Harbor, Me.) were administered an initial dose of either vehicle or one of the experimental therapies IP: 200 μL of saline (vehicle), or 3 μg of protein (e.g., GALNT1, LGALS3BP, MFAP5 or PENK) diluted in 200 μL of saline, or 1 mL of 1×BMSC-CM. 16 hours later, mice received a second dose of either vehicle or therapy in conjunction with a dose of 100 μg of LPS (E. coli 0111:B4; Sigma, St. Louis, Mo.) diluted in physiological saline. 48 hours later, mice were sacrificed and tissue and blood were collected for analysis. Serum was tested for the presence of IL-10 and TNF-α via ELISA and lungs, livers and kidneys of the animals were preserved for hematoxylin and eosin staining. For the lethal LPS model, eight week old female BALB/cJ mice (n≧5) were co-administered a lethal dose of LPS (350 μg LPS in 100 μL physiological saline) and either vehicle (negative control), 5 μg anti-TNF-α (positive control; R&D Systems, Minneapolis, Minn.), 4 μg MFAP5 diluted in 100 μL of physiological saline, or 4 μg of PENK diluted in 100 μL of physiological saline. Mice were monitored for survival for seven days (168 hours).

[5] = system: colitic mice (TNBS colitis); experiment: TNBS colitis in mice, colon histopathology; assay type: in vivo; conditions: 3 μg protein twice over 24 h; sacrifice at day 2; compared to vehicle (saline)
Protocol: FIG. 6: Administered MFAP5 and LGALS3BP protect mice from developing TNBS colitis. Mice were presensitized via the skin with 1% TNBS one week prior to intra-rectal administration of 3 mg of TNBS per mouse in a mixture of 50% EtOH and 50% sterile water to induce colitis. Mice were treated with 3 μg each of MFAP5, LGALS3BP and GALNT1 twice over a 24 hour period, once in conjunction with the TNBS administration and once 24 hours later. Mice were then sacrificed at day 2 and tissue collected for analysis. As expected, mice treated with vehicle (saline) developed extensive inflammation of the colon with loss of crypts and frank necrosis of the intestinal epithelium.
MFAP5, LGALS3BP and PENK all protected the colonic epithelium from the hallmark features of TNBS colitis: necrosis, inflammatory infiltrate and loss of crypts. Especially at the microscopic level, the tissue of the MFAP5, LGALS3BP and PENK treated animals looked mostly normal with minor foci of inflammation and edema.

leukocytes = experiment: IFN-γ production by LPS-stimulated leukocytes, ELISA; assay type: cell-based, human
Protocol: as §2, §3

[6] = 3 μg protein or 1 mL 1×BMSC-CM IP, twice, 100 μg LPS, 48 h later, compared to saline

B1: MFAP5: Microfibrillar-associated protein 5, ECM glycoprotein; recombinant form tested (protein, UniProt Q13361 22-173, looked up)
Microfibrillar-associated …: IPLGVNSQRGDDVTQATPETFTEDPNLVNDPATDETVLAVLADIAPSTDDLASLSEKNTTAECWDEKFTCTRLYSVHRPVKQCIHQLCFTSLRRMYIVNKEICSRLVCKEHEAMKDELCRQMAGLPPRRLRRSNYFRLPPCENVDLQRPNGL
- survival [1]: significant survival benefit
- increase of IL-10 production compared to 10×MSC-CM [2]: superior to that induced by 10×MSC-CM
- promote IL-10 production or suppress IFN-γ production [3]: either promote IL-10 production or suppress IFN-γ production
- serum IL-10 levels [4, 6]: Significantly elevated
- serum TNF-α [4, 6]: significantly suppressed
- lung histology (lung protection) ([4]; hematoxylin and eosin, sub-lethal LPS model, compared to vehicle): superior lung protection
- TNF-α suppression compared to BMSC-CM ([4]; serum, sub-lethal LPS model): superior TNF-α suppression
- protection from TNBS colitis (colon histopathology) [5]: protect the mice from developing acute colitis; also recorded: significant attenuation of colitis; also recorded: protected from developing extensive colonic inflammation

B2: HAPLN1: Hyaluronan and proteoglycan link protein 1; purified, recombinant form (protein, UniProt P10915 16-354, looked up)
Hyaluronan and proteoglycan …: DHLSDNYTLDHDRAIHIQAENGPHLLVEAEQAKVFSHRGGNVTLPCKFYRDPTAFGSGIHKIRIKWTKLTSDYLKEVDVFVSMGYHKKTYGGYQGRVFLKGGSDSDASLVITDLTLEDYGRYKCEVIEGLEDDTVVVALDLQGVVFPYFPRLGRYNLNFHEAQQACLDQDAVIASFDQLYDAWRGGLDWCNAGWLSDGSVQYPITKPREPCGGQNTVPGVRNYGFWDKDKSRYDVFCFTSNFNGRFYYLIHPTKLTYDEAVQACLNDGAQIAKVGQIFAAWKILGYDRCDAGWLADGSVRYPISRPRRRCSPTEAAVRFVGFPDKKHKLYGVYCFRAYN
- promote IL-10 production or suppress IFN-γ production [3]: either promote IL-10 production or suppress IFN-γ production
- IFN-γ production of leukocytes stimulated with LPS (leukocytes; 16 h incubation, LPS 10 μg/ml, medium collected 24 h after LPS): independently reduce IFN-γ production
- dose-dependency of IFN-γ production (leukocytes; HAPLN1 diluted in RPMI 1640): dose-dependency of IFN-γ production over several orders of magnitude
